Measurements: article PMC4760221, “Phosphorylation Regulates the Endocytic Function of the Yeast Dynamin-Related Protein Vps1” (Molecular and Cellular Biology, 2015)

B1: His-tagged Vps1 wild type (natural protein, S. cerevisiae, UniProt P21576 1-704, looked up)
chain: MDEHLISTINKLQDALAPLGGGSQSPIDLPQITVVGSQSSGKSSVLENIVGRDFLPRGTGIVTRRPLVLQLINRRPKKSEHAKVNQTANELIDLNINDDDKKKDESGKHQNEGQSEDNKEEWGEFLHLPGKKFYNFDEIRKEIVKETDKVTGANSGISSVPINLRIYSPHVLTLTLVDLPGLTKVPVGDQPPDIERQIKDMLLKYISKPNAIILSVNAANTDLANSDGLKLAREVDPEGTRTIGVLTKVDLMDQGTDVIDILAGRVIPLRYGYIPVINRGQKDIEHKKTIREALENERKFFENHPSYSSKAHYCGTPYLAKKLNSILLHHIRQTLPEIKAKIEATLKKYQNELINLGPETMDSASSVVLSMITDFSNEYAGILDGEAKELSSQELSGGARISYVFHETFKNGVDSLDPFDQIKDSDIRTIMYNSSGSAPSLFVGTEAFEVLVKQQIRRFEEPSLRLVTLVFDELVRMLKQIISQPKYSRYPALREAISNQFIQFLKDATIPTNEFVVDIIKAEQTYINTAHPDLLKGSQAMVMVEEKLHPRQVAVDPKTGKPLPTQPSSSKAPVMEEKSGFFGGFFSTKNKKKLAALESPPPVLKATGQMTERETMETEVIKLLISSYFSIVKRTIADIIPKALMLKLIVKSKTDIQKVLLEKLYGKQDIEELTKENDITIQRRKECKKMVEILRNASQIVSSV
notes: Vps1, dynamin-related protein of S. cerevisiae; also called recombinant Vps1; wild-type Vps1
B2: His-tagged Vps1 S599V (natural protein, S. cerevisiae, UniProt P21576 1-704, looked up)
chain: MDEHLISTINKLQDALAPLGGGSQSPIDLPQITVVGSQSSGKSSVLENIVGRDFLPRGTGIVTRRPLVLQLINRRPKKSEHAKVNQTANELIDLNINDDDKKKDESGKHQNEGQSEDNKEEWGEFLHLPGKKFYNFDEIRKEIVKETDKVTGANSGISSVPINLRIYSPHVLTLTLVDLPGLTKVPVGDQPPDIERQIKDMLLKYISKPNAIILSVNAANTDLANSDGLKLAREVDPEGTRTIGVLTKVDLMDQGTDVIDILAGRVIPLRYGYIPVINRGQKDIEHKKTIREALENERKFFENHPSYSSKAHYCGTPYLAKKLNSILLHHIRQTLPEIKAKIEATLKKYQNELINLGPETMDSASSVVLSMITDFSNEYAGILDGEAKELSSQELSGGARISYVFHETFKNGVDSLDPFDQIKDSDIRTIMYNSSGSAPSLFVGTEAFEVLVKQQIRRFEEPSLRLVTLVFDELVRMLKQIISQPKYSRYPALREAISNQFIQFLKDATIPTNEFVVDIIKAEQTYINTAHPDLLKGSQAMVMVEEKLHPRQVAVDPKTGKPLPTQPSSSKAPVMEEKSGFFGGFFSTKNKKKLAALEVPPPVLKATGQMTERETMETEVIKLLISSYFSIVKRTIADIIPKALMLKLIVKSKTDIQKVLLEKLYGKQDIEELTKENDITIQRRKECKKMVEILRNASQIVSSV
notes: Vps1, dynamin-related protein of S. cerevisiae, with S599V; also called S599V mutant; pKA971
B3: His-tagged Vps1 S599D (natural protein, S. cerevisiae, UniProt P21576 1-704, looked up)
chain: MDEHLISTINKLQDALAPLGGGSQSPIDLPQITVVGSQSSGKSSVLENIVGRDFLPRGTGIVTRRPLVLQLINRRPKKSEHAKVNQTANELIDLNINDDDKKKDESGKHQNEGQSEDNKEEWGEFLHLPGKKFYNFDEIRKEIVKETDKVTGANSGISSVPINLRIYSPHVLTLTLVDLPGLTKVPVGDQPPDIERQIKDMLLKYISKPNAIILSVNAANTDLANSDGLKLAREVDPEGTRTIGVLTKVDLMDQGTDVIDILAGRVIPLRYGYIPVINRGQKDIEHKKTIREALENERKFFENHPSYSSKAHYCGTPYLAKKLNSILLHHIRQTLPEIKAKIEATLKKYQNELINLGPETMDSASSVVLSMITDFSNEYAGILDGEAKELSSQELSGGARISYVFHETFKNGVDSLDPFDQIKDSDIRTIMYNSSGSAPSLFVGTEAFEVLVKQQIRRFEEPSLRLVTLVFDELVRMLKQIISQPKYSRYPALREAISNQFIQFLKDATIPTNEFVVDIIKAEQTYINTAHPDLLKGSQAMVMVEEKLHPRQVAVDPKTGKPLPTQPSSSKAPVMEEKSGFFGGFFSTKNKKKLAALEDPPPVLKATGQMTERETMETEVIKLLISSYFSIVKRTIADIIPKALMLKLIVKSKTDIQKVLLEKLYGKQDIEELTKENDITIQRRKECKKMVEILRNASQIVSSV
notes: Vps1, dynamin-related protein of S. cerevisiae, with S599D; also called S599D mutant; pKA972

Target: the molecule itself
Test: negative-stain transmission electron microscopy; purified recombinant Vps1; oligomeric single rings and double-ring structures seen after negative staining

Binding result, binds:
B1
B2
B3
